± gives the standard deviation of the averaged measurements.
B1: library; a variant is named by its letters at N, in order (parent)
chain: GCUGUCACCGGUGUAUUACCCUAGUGGUCGACCGGUCUGAUGAGUCUNNNNNNAGACGAAACAGC

Columns and labels:
[1] = variants of: B1; assay: FACS-Seq fitted mean relative fluorescence mCherry/BFP without ligand (log10 relative fluorescence); ligand: hypoxanthine (xanthine aptamer); higher = higher reporter protein expression; conditions: HEK293T, ligand present: no
Outline: (§1)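 Fluorescence values are fitted normal means of bin counts along the mCherry/BFP axis. HEK293T libraries lentivirally carrying the ribozyme switch in an mCherry reporter, with an EF1α-BFP marker, were enriched, exposed to ligand or not for 48 h, and sorted into 6 bins. Genomic DNA per bin was PCR-amplified, barcoded and run on MiSeq. Means of log10(mCherry/BFP) were scaled to five spiked-in control ribozymes.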

[2] = variants of: B1; assay: normalized RNA/DNA level with ligand (relative to sTRSVctl = 100) (log10 (% of sTRSVctl)); ligand: hypoxanthine (xanthine aptamer); higher = less ribozyme self-cleavage, higher mRNA level; conditions: ligand concentration (+) RNA-Seq: 5 mM, HEK293T, reporter: mCherry (pCS4076), ligand present: yes
Outline: (§2)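 Ribozyme switch library plasmids with mCherry reporters (eGFP in certain ligand experiments) went into HEK293T cells at 4 µg per 6-well well. Where ligand was used, it was applied 1 h before transfection, and total RNA was extracted with EDTA 72 h later for reverse transcription, amplification, barcoding and sequencing. RNA level is the RNA-to-DNA read ratio normalized to a spiked-in non-cleaving sequence or to the leading sequences, then scaled and log-transformed. Scaling was ×100 with log10, the leading set comprised 25 sequences, and the cutoff was ≥100 DNA reads.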

[3] = variants of: B1; assay: normalized RNA/DNA level without ligand (relative to sTRSVctl = 100) (log10 (% of sTRSVctl)); ligand: hypoxanthine (xanthine aptamer); higher = less ribozyme self-cleavage, higher mRNA level; conditions: HEK293T, reporter: mCherry (pCS4076), ligand present: no
Outline: as §2

[4] = variants of: B1; assay: FACS-Seq fitted mean relative fluorescence mCherry/BFP with ligand (log10 relative fluorescence); ligand: hypoxanthine (xanthine aptamer); ligand concentration (+) FACS-Seq: 5 mM; higher = higher reporter protein expression; conditions: HEK293T, ligand present: yes
Outline: as §1

Variant | FACS-Seq fitted mean (log10) [1] | normalized RNA/DNA level with ligand (log10) [2] | normalized RNA/DNA level without ligand (log10) [3] | FACS-Seq fitted mean (log10) [4]
UGGGGA | 0.00194 ± 0.046 | 1.88 ± 0.041 | 1.48 ± 0.029 | 0.376 ± 0.0086
AGCUUG | 0.486 ± 0.018 | 1.94 ± 0.036 | 1.59 ± 0.018 | 0.64 ± 0.031
GGGAAU | 0.489 ± 0.043 | 1.93 ± 0.045 | 1.64 ± 0.021 | 0.654 ± 0.069
GGGAAA | 0.227 ± 0.0031 | 1.867 ± 0.0029 | 1.57 ± 0.028 | 0.428 ± 0.03
GGGAAG | -0.183 ± 0.0054 | 1.64 ± 0.023 | 1.18 ± 0.014 | 0.325 ± 0.0034
AGUCAU | 0.385 ± 0.052 | 1.92 ± 0.0085 | 1.79 ± 0.023 | 0.509 ± 0.025
CGGGCU | 0.773 ± 0.061 | 1.946 ± 0.019 | 1.954 ± 0.0037 | 0.578 ± 0.023
UGGACG | 0.639 ± 0.083 | 1.96 ± 0.082 | 1.68 ± 0.048 | 0.676 ± 0.22
GGGUUA | 0.574 ± 0.047 | 1.99 ± 0.018 | 1.845 ± 0.013 | 0.558 ± 0.01
GGGUUG | 0.034 ± 0.047 | 1.92 ± 0.024 | 1.64 ± 0.073 | 0.486 ± 0.065
AGUAAA | 0.625 ± 0.22 | 1.891 ± 0.011 | 1.73 ± 0.063 | 0.59 ± 0.032
AGUAAU | 0.85054 ± 0.00034 | 1.88 ± 0.03 | 1.85 ± 0.056 | 0.78 ± 0.058
GGGAUG | 0.0328 ± 0.0034 | 1.79 ± 0.043 | 1.323 ± 0.0058 | 0.564 ± 0.02
GGGUAC | 0.1586 ± 0.00038 | 1.93 ± 0.06 | 1.68 ± 0.037 | 0.529 ± 0.049
GGGUAG | -0.254 ± 0.0079 | 1.74 ± 0.03 | 1.44 ± 0.079 | 0.395 ± 0.063
GGGUAA | 0.396 ± 0.048 | 1.884 ± 0.0098 | 1.71 ± 0.045 | 0.6223 ± 0.0027
GGGUAU | 0.137 ± 0.2 | 1.94 ± 0.053 | 1.71 ± 0.047 | 0.374 ± 0.03
AGGUGA | 0.38 ± 0.046 | 1.86 ± 0.028 | 1.46 ± 0.04 | 0.623 ± 0.045
AGUAGU | 0.38 ± 0.09 | 1.831 ± 0.016 | 1.45 ± 0.07 | 0.577 ± 0.036
AGUAGA | 0.394 ± 0.025 | 1.83 ± 0.031 | 1.42 ± 0.025 | 0.725 ± 0.0082
GGGGAG | -0.274 ± 0.0067 | 1.812 ± 0.0043 | 1.46 ± 0.013 | -0.0598 ± 0.036
GGGGAA | 0.623 ± 0.047 | 1.91 ± 0.032 | 1.66 ± 0.022 | 0.751 ± 0.032
AGGGGC | 0.795 ± 0.067 | 1.95 ± 0.047 | 1.86 ± 0.079 | 0.741 ± 0.049
AGGGGG | 0.363 ± 0.12 | 1.88 ± 0.034 | 1.53 ± 0.07 | 0.631 ± 0.028

Variant | FACS-Seq fitted mean (log10) [1] | normalized RNA/DNA level with ligand (log10) [2] | normalized RNA/DNA level without ligand (log10) [3] | FACS-Seq fitted mean (log10) [4]
UGUCGG | 0.0812 ± 0.15 | 1.9 ± 0.04 | 1.543 ± 0.01 | 0.151 ± 0.019
AGGAGG | 0.0646 ± 0.011 | 1.584 ± 0.0034 | 1.186 ± 0.0034 | 0.626 ± 0.055
AGGAGU | 0.142 ± 0.026 | 1.8 ± 0.024 | 1.37 ± 0.03 | 0.537 ± 0.073
AGGAGA | 0.176 ± 0.052 | 1.78 ± 0.049 | 1.28 ± 0.033 | 0.621 ± 0.034
AGGAGC | 0.421 ± 0.0061 | 1.883 ± 0.003 | 1.485 ± 0.0035 | 0.5478 ± 0.0022
CGGGUA | 0.436 ± 0.033 | 1.94 ± 0.044 | 1.82 ± 0.068 | 0.64 ± 0.015
CGGGUU | -0.0176 ± 0.018 | 1.99 ± 0.027 | 1.89 ± 0.044 | -0.176 ± 0.051
UGGUUU | 0.325 ± 0.015 | 1.95 ± 0.023 | 1.885 ± 0.005 | 0.434 ± 0.035
UGGUUC | -0.0246 ± 0.0066 | 1.96 ± 0.063 | 1.925 ± 0.018 | 0.212 ± 0.028
GGGCUG | 0.228 ± 0.058 | 1.967 ± 0.0031 | 1.775 ± 0.0099 | 0.495 ± 0.026
GGGCUA | 0.512 ± 0.024 | 2.01 ± 0.015 | 1.943 ± 0.015 | 0.456 ± 0.011
UGGUCA | 0.761 ± 0.06 | 1.97 ± 0.043 | 1.84 ± 0.025 | 0.607 ± 0.11
UGGUCG | -0.282 ± 0.14 | 1.924 ± 0.012 | 1.79 ± 0.06 | -0.0942 ± 0.036
UGUAAG | 0.327 ± 0.084 | 1.9 ± 0.033 | 1.67 ± 0.063 | 0.586 ± 0.075
AGGAUG | 0.132 ± 0.024 | 1.79 ± 0.042 | 1.25 ± 0.045 | 0.526 ± 0.06
AGGAUA | -0.536 ± 0.015 | 1.9 ± 0.027 | 1.677 ± 0.0074 | -0.0798 ± 0.042
UGGAGU | 0.221 ± 0.061 | 1.78 ± 0.019 | 1.32 ± 0.051 | 0.602 ± 0.023
UGGAGG | 0.223 ± 0.0051 | 1.73 ± 0.018 | 1.26 ± 0.072 | 0.592 ± 0.036
UGGAGC | 0.45 ± 0.088 | 1.959 ± 0.019 | 1.707 ± 0.01 | 0.69 ± 0.031
UGGAGA | 0.259 ± 0.025 | 1.791 ± 0.0083 | 1.33 ± 0.092 | 0.644 ± 0.0081
AGUCCU | 0.767 ± 0.076 | 1.92 ± 0.085 | 1.895 ± 0.015 | 0.719 ± 0.034
GGGUCC | 0.29 ± 0.12 | 2 ± 0.023 | 1.991 ± 0.019 | 0.3574 ± 0.0012
UGGCUG | 0.218 ± 0.011 | 2.02 ± 0.0097 | 1.95 ± 0.04 | 0.298 ± 0.023
UGGCUU | 0.674 ± 0.017 | 1.97 ± 0.02 | 1.94 ± 0.03 | 0.66 ± 0.06

Variant | FACS-Seq fitted mean (log10) [1] | normalized RNA/DNA level with ligand (log10) [2] | normalized RNA/DNA level without ligand (log10) [3] | FACS-Seq fitted mean (log10) [4]
GGUAGU | 0.573 ± 0.11 | 1.9 ± 0.06 | 1.75 ± 0.0084 | 0.507 ± 0.034
GGUAGG | -0.101 ± 0.028 | 1.69 ± 0.062 | 1.29 ± 0.041 | 0.5153 ± 0.001
GGUAGC | 0.239 ± 0.017 | 1.86 ± 0.054 | 1.35 ± 0.059 | 0.647 ± 0.056
UGGCGA | 0.345 ± 0.039 | 1.94 ± 0.031 | 1.65 ± 0.034 | 0.579 ± 0.11
AGGCUA | 0.509 ± 0.0085 | 1.93 ± 0.031 | 1.811 ± 0.0095 | 0.617 ± 0.057
AGGCUG | 0.279 ± 0.011 | 2 ± 0.04 | 1.78 ± 0.045 | 0.333 ± 0.014
UGGCAU | 0.353 ± 0.011 | 1.95 ± 0.06 | 1.755 ± 0.014 | 0.465 ± 0.046
UGGCAG | 0.155 ± 0.013 | 1.91 ± 0.045 | 1.69 ± 0.045 | 0.563 ± 0.052
AGGUUG | 0.0275 ± 0.013 | 1.88 ± 0.021 | 1.48 ± 0.042 | 0.557 ± 0.036
AGGCGU | 0.521 ± 0.063 | 1.94 ± 0.02 | 1.67 ± 0.025 | 0.656 ± 0.01
AGGCGG | 0.194 ± 0.017 | 1.841 ± 0.0031 | 1.354 ± 0.01 | 0.536 ± 0.039
UGUAUG | 0.361 ± 0.043 | 1.909 ± 0.007 | 1.777 ± 0.0029 | 0.435 ± 0.059
CGGUAA | 0.258 ± 0.03 | 1.814 ± 0.002 | 1.27 ± 0.058 | 0.537 ± 0.027
CGGUAU | 0.0356 ± 0.0062 | 1.79 ± 0.05 | 1.41 ± 0.016 | 0.468 ± 0.05
CGGUAG | 0.498 ± 0.066 | 1.9 ± 0.036 | 1.61 ± 0.029 | 0.506 ± 0.0093
AGGGUA | 0.412 ± 0.086 | 1.95 ± 0.041 | 1.82 ± 0.0091 | 0.427 ± 0.064
AGGGUC | 0.588 ± 0.012 | 2.003 ± 0.0048 | 1.94 ± 0.06 | 0.51 ± 0.11
AGGGUU | 0.328 ± 0.006 | 1.97 ± 0.027 | 1.9 ± 0.029 | 0.0205 ± 0.029
GGGGGU | 0.334 ± 0.062 | 1.935 ± 0.0072 | 1.86 ± 0.02 | 0.316 ± 0.064
GGGGGC | 0.564 ± 0.051 | 1.85 ± 0.06 | 1.51 ± 0.023 | 0.468 ± 0.037
AGUCGA | 0.423 ± 0.022 | 1.95 ± 0.035 | 1.61 ± 0.058 | 0.654 ± 0.0092
GGUACG | 0.173 ± 0.027 | 1.88 ± 0.031 | 1.49 ± 0.016 | 0.506 ± 0.019
GGUACU | 0.2 ± 0.042 | 1.97 ± 0.083 | 1.93 ± 0.047 | 0.258 ± 0.029
